Laboratory results published in patent publication US20100273704A1.

Biological target: BCL-XL ΔC [GST: P08515]
Experiment: fluorescence polarization

EC50 [nM] | Substance
40.2 | BAD SAHBA
333 | BAD SAHBA(L,D→A)
> 10000 | BAD SAHBA(S→D)
35.3 | BID SAHBA
